A word on the Kd: it is the free concentration of one partner at which half of the binding sites on the other are occupied at equilibrium, for simple one-to-one binding. What is called koff is the rate constant with which the complex falls apart. The term kon denotes the second-order rate constant of association.

Assay [1] deals with T1, recombinant human BCMA Fc(kih) (human, UniProt Q02223 4-53, biotin on the avi-tag at the C-terminus of the Fc knob chain (BirA, in vivo)).
T1 construct: range 4-53;domain: Fc portion (hole chain); Monomeric Fc fusion made in HEK EBNA cells: one BCMA extracellular domain on the knob chain, paired with an unfused hole chain; also called huBCMA Fc(kih); biotinylated human BCMA; not shown: hinge and Fc portion of human IgG1, knob chain (knobs-into-holes)
T1 chain (looked up): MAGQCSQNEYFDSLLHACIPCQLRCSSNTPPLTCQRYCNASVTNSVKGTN
Kind of assay: SPR, Biacore T200, 25 C; IgG captured by anti-human Fab antibody on CM5 chip, BCMA Fc(kih) as analyte, 1:1 Langmuir. (SPR reads the build-up and loss of mass on a sensor chip optically.)

The target of assay [2] is T2, human BCMA on BCMA-expressing multiple myeloma cells (H929, RPMI-8226) (human, UniProt Q02223 1-184).
T2 construct: whole, on cells; Endogenous BCMA on H929 (ATCC CRL-9068) or RPMI 8226 (ATCC CCL-155) cells; also called TNFRSF17; H929 cells
T2 sequence (looked up): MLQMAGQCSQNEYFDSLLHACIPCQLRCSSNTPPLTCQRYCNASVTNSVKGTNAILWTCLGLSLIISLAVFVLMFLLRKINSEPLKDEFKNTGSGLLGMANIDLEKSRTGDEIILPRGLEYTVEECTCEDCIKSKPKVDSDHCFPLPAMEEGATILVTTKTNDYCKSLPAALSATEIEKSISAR
Nature of the assay: flow cytometry on H929 cells; IgG 20 µg/mL incubated together with competitor Δ-APRIL 2.5 µg/mL; fluorochrome-conjugated anti-human Fc detection.

Assay [3] deals with T1, recombinant human BCMA Fc(kih). Kind of assay: SPR, ProteOn XPR36, 25 C; biotinylated BCMA on NLC chip by neutravidin capture, Fab as analyte, 1:1 Langmuir.
The target is the same in assay [4]. Nature of the assay: competition ELISA; biotinylated human BCMA on neutravidin plate saturated with 500 or 1000 nM Fab, competitor murine APRIL 6.25 nM (140 ng/mL); anti-FLAG-HRP, OD450-650. Background: In an ELISA, binding on a coated surface is turned into a signal by an enzyme label.
The target is the same in assay [5]. Nature of the assay: competition ELISA; biotinylated human BCMA on neutravidin plate saturated with 500 or 1000 nM Fab, competitor murine APRIL 50 nM (1000 ng/mL); anti-FLAG-HRP, OD450-650.

B1: 13A4 anti-BCMA IgG (antibody, V domains shown)
VH: EVQLVQSGAEVKKPGESLKISCKGSGYSFTSYWIGWVRQMPGKGLEWMGIIYPGDSDTRYSPSFQGQVTISADKSISTAYLQWSSLKASDTAMYYCARNGYLGDYWGQGTLVTVSS
VL: not shown
For the molecule B1, in assay [1], the Kd was determined as 5.1 nM, the koff was found to be 0.00036 s⁻¹ and the kon was found to be 72000 M⁻¹ s⁻¹. Further, the “Reduction (↓) in binding of anti-BCMA antibodies in presence of APRIL” value in assay [2] was 25%.

B2: anti-BCMA Fab clone 13A4 (Fab, V domains shown)
VH: EVQLVQSGAEVKKPGESLKISCKGSGYSFTSYWIGWVRQMPGKGLEWMGIIYPGDSDTRYSPSFQGQVTISADKSISTAYLQWSSLKASDTAMYYCARNGYLGDYWGQGTLVTVSS
VL: not shown
notes: detected by anti-FLAG antibody
As for B2, the Kd in assay [3] is 1.8 nM. For the same molecule, the figures for the “Reduction (↓) in OD values in presence of muAPRIL” value in assay [4] and in assay [5] were 7.7% and 13.1%, respectively.
